Experimental data as given in the DeepSol protein solubility set.

Assay: soluble on expression in E. coli; label from the status in PepcDB or PDB records

| Sequence | soluble on expression in E. coli |
| --- | --- |
| MSLNESEEKNSNSTYSFFFKNLSVTGFYEENCLFMTVKELFDNSIDALCNNKGDENIDEEGQGTQEKKIEIEIKEYGINSSFYEIICRDNGEGIEVKDLEKISEMFLTSKEKCITSGKFGIGLKTILLYSFKTAYGFLHIKIKVKKNKIWDFILVLDKNLNHTFVQNFKEYIDDKWEWTIEISVILKINNNYISDKKIHSYIKLFLLWKKNITVKYIHNPNGEQSIYTYSSHSDTSEENILSMLANNSINMIFKKDFLTSYNYDVNMYVNVRKSEKIIPYEHGHNIGFLFLIRYVNSMPLLRTSSSDCSITVDFRNFLKYYGPQFGIELPTIESRDEMILEELALPSCFDDLNKVANIFPVKRSEEGHHHHHH | soluble |
| GMAKKTLILYYSWSGETKKMAEKINSEIKDSELKEVKVSEGTFDADMYKTSDIALDQIQGNKDFPEIQLDNIDYNNYDLILIGSPVWSGYPATPIKTLLDQMKNYRGEVASFFTSAGTNHKAYVSHFNEWADGLNVIGVARDDSEVDKWSK | soluble |
| MILYDAIMYKYPNAVSRKDFELRNDGNGSYIEKWNLRAPLPTQAELETWWEELQKNPPYEPPDQVELLAQELSQEKLARKQLEELNKTLGNELSDIKLSLLSLKGDYAELEHHHHHH | soluble |
| MSLKGVSYTSEQKTRIVLEMLKEEETLAQIASRYQVTSQTLNSWKRQFLANASLAFEPAKALQEYKDQIQSKEQEIEELQKQLGKSVAEKEWLAKKLEGLDLSNKKALVESKPETISIARQCELLGISRSAYYYKPISLSRANLQIMHAIGEIATDNAEYGYRFIHQQLLEDGYRIGKERVLKYMRVMNLRALYPKKRKHTSIHNLEYKRYPYLLSQYHNSKKQVVVDRPGEVWSGDITYIRMNGGFMYLCAIIDWHSKAILAYKISNTMDASLAVDTLKEALQTHPAPRIFNSDQGSQYTSEEHTRLLEEHQIAISMNGKGRSIDNIAIERFFRTLKHSSIYINDYRTIKELKEGIKNYIHKYNFKRFHSSIEYRKPMNVYLEAQTVAEGHHHHHH | not soluble |
| MGSDKIHHHHHHMPARIQPTARQVRLGAELRKLRDAAGLTSRQAAALLGTNPAQMSQIEAGNAGVSGERVRKLGVQYASADMELVDALVEMATDRTRGWWEEYRDVLPPVFQDLAELEHHATFMRVVGTVHVPGLLQTQEYARAVFAYVVPELPVDELDLRVRHRMRRKLVLSERTVPYEAVIHESVLRTRVADRRVAVAQLDELLSQSERPNVSLRVIPFGVDGFAGAGAMMLYAGGRVPALDTVQRDAPYGSVFLDASAQLLAMRTLFRRVESAALPPAKSRDYIHRLTKEL | not soluble |
| MVAEVSPKLAASPMKKPFGFRGKMGKWCCCCFPCCRGSGKNNMGAWRDHDDSAFTEPRYHVRREDLGKLHRAAWWGEVPRADLIVMLRGPGINKRDKKKRTALHLACANGNSEVVSLLLDRQCQLHVFDSKKRTALIKAVQCQEDECALMLLQHGTDPNLPDMYGNTALHYAVYNEDKLMAKTLLLYGADIESKNKGGLTPLLLAVHGQKQRMVKFLIKKKANLNALDRFGRICQLLSDYKENQMPNNSSGNSNPEQDLKLTSEEEPQRLKGSENSQHEKVTQEPDINKDCDREVEEEMQKHGSNNVGLSENLTDGAAAGNGDGGLVPQRKSRKHENQQFPNTEIEEYHRPEKKSNEKNKVKSQIHSVDNLDDITWPSEIASEDYDLLFSNYETFTLLIEQLKMDFNDSASLSKIQDAVISEEHLLELKNSHYEQLTVEVEQMENMVHVLQK | not soluble |
| MSLVLGNAWLVLADRVIEHGWVAIADGVIAEVGEGDAPNGAKDMHGDLVMPGLVELHTDHLEAHYTPRPKVQWNPVAAVVSYDGQLATCGITTVLDSLRVWREEGAEEVDGQAIVLAGAISTARDAQLLRADHFLHLRCEIPMPNVVAEAKELIDRPDIRLMSLMDHTPGQRQFRDEEKLRDYYRGKGAGMTDAELDVMFARRVYCKENYADANMRAIVELAHRYEIPLASHDDTTPENVADAIRDRVAVAEFPTTLEAARELHQAGIDILMGAPNVVRGGSHSGNIAAIDLAHEGLLDILSSDYIPSSLLIAALQLPMRAPGIDLAAAIRTVTKAPAEAVGLNDRGEISKGKRADLIRVHVAHDVPAVRSVWREGQRVAEGHHHHHH | soluble |
| MGSDKIHHHHHHMAKDIEISASESKFILEALRQNYRLDGRSFDQFRDVEITFGKEFGDVSVKMGNTKVHCRISCQIAQPYEDRPFEGLFVISTEISPMAGSQFENGNITGEDEVLCSRIIEKSVRRSGALDVEGLCIVAGSKCWAVRADVHFLDCDGGFIDASCIAVMAGLMHFKKPDITVHGEQIIVHPVNEREPVPLGILHIPICVTFSFFNPQDTEENIKGETNSEISIIDATLKEELLRDGVLTVTLNKNREVVQVSKAGGLPMDALTLMKCCHEAYSIIEKITDQILQLLKEDSEKRNKYAAMLTSENAREI | not soluble |
| MNSAKKEFEISHIFTDVSKLENGNFLLSPEEDHFNVPWDLQLYREDDHLDVYLRCTKLTENDEICAIDTEFELTLKTSNGKQMSRRVKVDFTLENIMIPAWRWSKVVSWETLLKEYLIDDSIIVEAAVMIKAMTGIPRMKLRSFEKSAQEYSDAIIAIGDEKFYVLKKFLAAHSTYFKDLLFGDFDFEQAENSEITLSDINSTDFQCLLEVLYGEPAIDEENIDGILKLAQKYNMPLRFGDVKSS | not soluble |
| MGSDKIHHHHHHMKDNKINILFLSWRDIKCPKSGGAEVFTHEMLKRLDFNKYDITHFSPTFEGAKEKEIIDNVTYIRRGNILSVISEAKKYYKTNKDEIDFVVDQCNTHKFFTPLWVPKKKRIFFIHQLTREIWHINARFPISTLGYLFETPTLRLYKNDYTITVSDSTKKDLIDIGFDRDKVTIFPEGINFKPWDKDSLLKEKDNIFGYIGRFVNYKGIDAAVKAYCILKKDYPNSKLWIIGKKKDDYIEKVLLPILKENNITYGNRGQNRDITFWGFVSEKEKLSLMSKMKALLFPSIREGFGLTVIEAGAVGTPTVVYNSKGLVDAVDKGKAGYLCEENTPENLYYFMKNILENENEYGLKRKNAHDFSLKFNWDSTSKYFDDFINKLNEKSLKK | not soluble |
| MAHHHHHHMVWFSAPDNSEFLGDPLPRKARQPKVHLATEVSVEASVPWEDVSSWECGSQTSRNSSRSSTSDNAANGHVANINKFHDRMELIRRLNKRRRNNSTCRESGRTEQWTCQPLYVGVSTFPEMKEMSPKSVGGENVPFWNGAVVHDSPLMTDRSGSEVDKKPLKTRKCAWNLTYVRKNDWPEAHQMHEGDAII | not soluble |
| MDGILSHNSKKTADFDEYELYRRLKSWYKEDVEHVNEWREQAREDFDFYNGRQWAEEDLAVLKAQRRPVMTFNRIAPLVNAIVGAERNNKREVQFQPRQAGAAISNELLTGAAEWFRDEAEAEYADSDAFQDMVICGMGWTDTRLDYETDPEGIPAIQRLDPLKMVWDANAVRPNLIDAQRMWYVDRKPVEDAKSLFPDVAVEDLHADWATDNTTACEEYHVSLDAYNDHANADSLSQSASEKRYVTLVECRWFEYEVYFKAPDLQTGQMRSYSKQEFEQLQRVAPQLQGVRFNKKVVKRAFLGRRLLAKPDKPLAPDGQLGWECITGTLDKLKNQFYGIVRPAKDPQKWSNKYFSQVMYILNSQAKGGLMAERGAFDDERQALENWTRTDTITWVKNGALTGGKIQPKPSAQFPNGFFQLFNESREAITHVTGLSAEFIGTREVNQANVLENTRRQSTLNLLAGLFDNLKLYRCRQGKIILYLIQNYLSDGRLVRISGPENAQYVPLTREAVTKLEYDIIVDDSPTSPNEKERTFAAITQMLPLLGGFLTPEMIPDLLKLSPLPATLVANLTAKAQQAQQEQQQQQMMQQNQGTQLNPEQQAKIAALQQEAQAKGTLYQLDAQQKQLALQQKNIELFLKQEQARMQLELQRAKNEIAQRDLERKSLQAQLEHYRVLTKRLIPH | not soluble |
| MSLDTIKVGFNIPLTGDIPKVGESSKFAAEILKGEINAAGGLKVGDKTYQLEFIYEDNESKAESATATALKLITQDGVLAIIGPQSSKQAIPAGQVCNDNKTPMISPWSTNPKTTENRPYVFRACFLDPFQGPVAAKFVTEEFKAKKAAVLYDIASDYPKGLAEFFKDAFEKIHGPGSVVAFETFTTKDKDFSAQLTKIVASGADVLFTPQYYDEVPLIVKQAQELGWKKPIMGSDSWGSAELMKLCGDACKGYCFSTHYAAAGAKGATKEFIDKYNTKYGYVPDDVAALTWDAINLLFTAVKNTGGLSGNLDKDRDAIKDKLTQVKDFEGITGKMTFAPGGNPTKCAVVVKISDKGEFEFFKSEGHHHHHH | soluble |
